What all share (assay): SPOT array
Experiment [1] has as its target T1, Yhr016c SH3 (YSC84_YEAST), P32793.
T1 chain: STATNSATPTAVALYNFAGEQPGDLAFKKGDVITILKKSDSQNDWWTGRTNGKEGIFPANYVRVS

Experiment [2] deals with T2, Boi1 SH3 (BOI1_YEAST), P38041.
T2 chain: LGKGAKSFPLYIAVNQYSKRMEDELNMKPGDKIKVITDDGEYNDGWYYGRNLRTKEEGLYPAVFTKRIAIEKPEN

The target of experiment [3] is T3, Rvs167 SH3 (RV167_YEAST), P39743.
T3 chain: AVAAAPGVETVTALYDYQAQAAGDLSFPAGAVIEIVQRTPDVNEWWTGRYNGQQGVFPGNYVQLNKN

Experiment [4] concerns the target T4, Boi2 SH3 (BOI2_YEAST), P39969.
T4 chain: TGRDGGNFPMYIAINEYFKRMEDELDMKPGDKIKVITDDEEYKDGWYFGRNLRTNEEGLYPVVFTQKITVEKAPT

In experiment [5] the target is T5, Yfr024 SH3 (LSB3_YEAST), P43603.
T5 chain: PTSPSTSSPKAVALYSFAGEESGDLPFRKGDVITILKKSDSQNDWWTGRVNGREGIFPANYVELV

FLPPPKPFRHTETK [YBR108W 587-600]: the normalised SPOT signal, Boehringer light units (BLU); mean over the file's lines of this peptide was 25000 in experiment [1]; 295 in experiment [2]; 1190 in experiment [3]; 67.3 in experiment [4]; 36400 in experiment [5].

Turning to FFQPEYPVRMEPDL [YLR128W 194-207], the normalised SPOT signal, Boehringer light units (BLU); mean over the file's lines of this peptide came out at 210 in experiment [1]; 57.9 in experiment [2]; 0 in experiment [3]; 76 in experiment [4]; 1060 in experiment [5].

As to FENPTIPKKSYSEF [YPR045C 291-304], the normalised SPOT signal, Boehringer light units (BLU); mean over the file's lines of this peptide in experiment [1] stood at 43.7; in experiment [2] it was 78.2; in experiment [3], 47.2; in experiment [4], 55.1; in experiment [5], 50.5.

As for FKMPKKPQRSKEEV [YOR243C 86-99], the normalised SPOT signal, Boehringer light units (BLU); mean over the file's lines of this peptide in experiment [1] turned out to be 2660; in experiment [2] it was 97.7; in experiment [3], 166; in experiment [4], 244; in experiment [5], 7880.

For FHDPILPRRTSTFL [YHL028W 526-539], the normalised SPOT signal, Boehringer light units (BLU); mean over the file's lines of this peptide was found to be 42100 in experiment [1]; 9870 in experiment [2]; 6840 in experiment [3]; 87.1 in experiment [4]; 44800 in experiment [5].

With FNGPEPPIKRLKKA [YNL286W 148-161], the normalised SPOT signal, Boehringer light units (BLU); mean over the file's lines of this peptide in experiment [1] came out at 42.4; in experiment [2], 255; in experiment [3] it was 70.5; in experiment [4], 11.4; in experiment [5] it was 625.

As for FFHPAIPLKNAAPF [YER066C-A 112-125], the normalised SPOT signal, Boehringer light units (BLU); mean over the file's lines of this peptide in experiment [1] is 288; in experiment [2], 154; in experiment [3], 22.5; in experiment [4], 9.4; in experiment [5] it was 298.

For the molecule FKAPTNPRKVYSKR [YMR035W 79-92], the normalised SPOT signal, Boehringer light units (BLU); mean over the file's lines of this peptide in experiment [1] is 143; in experiment [2] it was 80.9; in experiment [3] it was 33.7; in experiment [4], 38.8; in experiment [5] it was 267.

As to FLQPVDPVKLDIPF [YLR399C 173-186], the normalised SPOT signal, Boehringer light units (BLU); mean over the file's lines of this peptide in experiment [1] is 117; in experiment [2] it was 92.6; in experiment [3], 56.8; in experiment [4] it was 24.4; in experiment [5], 0.

On to FDFPLSPVKHENPT [YBR098W 196-209], for which the normalised SPOT signal, Boehringer light units (BLU); mean over the file's lines of this peptide in experiment [1] was 135; in experiment [2], 70.3; in experiment [3] it was 28.7; in experiment [4] it was 2.4; in experiment [5] it was 53.

Regarding FFDPESPNKGKLIL [YPL269W 491-504], the normalised SPOT signal, Boehringer light units (BLU); mean over the file's lines of this peptide was 129 in experiment [1]; 63.1 in experiment [2]; 61.6 in experiment [3]; 149 in experiment [4]; 68 in experiment [5].

On to FLSPGKPSKGTSLH [YML005W 163-176], for which the normalised SPOT signal, Boehringer light units (BLU); mean over the file's lines of this peptide in experiment [1] worked out at 243; in experiment [2] it was 96.5; in experiment [3], 58.9; in experiment [4], 34.6; in experiment [5], 437.

For FISPHLPMKGRLVL [YGR068C 471-484], the normalised SPOT signal, Boehringer light units (BLU); mean over the file's lines of this peptide was 301 in experiment [1]; 231 in experiment [2]; 68.3 in experiment [3]; 20.4 in experiment [4]; 1540 in experiment [5].

Consider FGTPVAPTRTLSRK [YOR070C 179-192], for which the normalised SPOT signal, Boehringer light units (BLU); mean over the file's lines of this peptide in experiment [1] came out at 269; in experiment [2], 3280; in experiment [3], 398; in experiment [4], 308; in experiment [5], 5160.

With FLLPNLPMRTFKEI [YIL105C 444-457], the normalised SPOT signal, Boehringer light units (BLU); mean over the file's lines of this peptide is 8100 in experiment [1]; 218 in experiment [2]; 8120 in experiment [3]; 66.4 in experiment [4]; 15300 in experiment [5].
